Test results as given in PMC2860604.

T1: Jun bZIP ΔL54 (human, UniProt P05412 251-300)
T1 chain: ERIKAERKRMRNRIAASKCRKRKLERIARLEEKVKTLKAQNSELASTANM

T2: Jun bZIP ΔL5432 (human, UniProt P05412 251-286)
T2 chain: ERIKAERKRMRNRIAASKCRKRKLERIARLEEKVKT

T3: Jun bZIP ΔL54321 (human, UniProt P05412 251-279)
T3 chain: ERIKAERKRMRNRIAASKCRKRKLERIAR

T4: Jun bZIP ΔL543 (human, UniProt P05412 251-293)
T4 chain: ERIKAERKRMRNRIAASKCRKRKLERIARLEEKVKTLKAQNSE

B1: TRE duplex (dsDNA)
DNA 1: CGCGTGACTCACCCC
DNA 2: GGGGTGAGTCACGCG

Key:
[1] = biological target: Wildtype (WT) construct of bZIP domain of human Jun (human); assay: SEC-MALS
Jun bZIP ΔL54 = biological target: T1, Jun bZIP ΔL54; assay: ITC
Jun bZIP ΔL5 = Jun bZIP ΔL5 (human, UniProt P05412 251-307); assay: ITC
Jun bZIP ΔL5432 = biological target: T2, Jun bZIP ΔL5432; assay: ITC
Jun bZIP ΔL54321 = biological target: T3, Jun bZIP ΔL54321; assay: ITC
Jun bZIP ΔL543 = biological target: T4, Jun bZIP ΔL543; assay: ITC
Jun bZIP domain WT = Jun bZIP domain WT (human, UniProt P05412 252-315); assay: ITC
Chain of Jun bZIP domain WT (P05412 252-315): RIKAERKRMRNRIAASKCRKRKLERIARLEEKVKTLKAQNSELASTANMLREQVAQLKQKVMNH

| Molecule | stoichiometry N [1] | Kd (Jun bZIP ΔL54) | Kd (Jun bZIP ΔL5) | binding result (Jun bZIP ΔL5432) | binding result (Jun bZIP ΔL54321) | Kd (Jun bZIP ΔL543) | Kd (Jun bZIP domain WT) |
| --- | --- | --- | --- | --- | --- | --- | --- |
| Wildtype (WT) construct of bZIP domain of human Jun (domain or fragment) | 2 | – | – | – | – | – | – |
| B1 | – | 6.14 ± 0.27 µM | 1.26 ± 0.21 µM | no binding | no binding | 14.8 ± 1.67 µM | 0.25 ± 0.01 µM |
